System: MS2 coat protein
Experiment: apparent KD of MS2 coat protein; designed switch direction (-1 OFF switch, 1 ON switch): -1; higher = weaker reporter binding
Method in brief: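 Designed RNA switches were transcribed on Illumina chips by stalled E. coli RNA polymerase and titrated with SNAP-549-labelled MS2 coat protein from 0.7 or 1.5 nM, doubling to 3 µM. Step length ran from 0.8–1.5 h at the lowest concentration to 10–20 min at the highest. The apparent KD is the median over clusters for each design, from curve-fitted normalised cluster fluorescence.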

[1] = input ligand: microRNA oligo, concentration not stated
[2] = Eterna round: R95, input ligand: FMN 200 uM
[3] = Eterna round: R95, input ligand: microRNA oligo, concentration not stated
[4] = Eterna round: R95, input ligand: none

| Sequence | apparent KD of MS2 coat protein (input ligand: FMN 200 uM) | apparent KD of MS2 coat protein [1] | apparent KD of MS2 coat protein (input ligand: none) | apparent KD of MS2 coat protein [2] | apparent KD of MS2 coat protein [3] | apparent KD of MS2 coat protein [4] |
| --- | --- | --- | --- | --- | --- | --- |
| UUGGUACUGGUAGGAUAUCCGUUGGAAACCGUCGGAGAAGGACCACAGUCACUGGGUCUUUGUCAAGUGGAGUGGAAGAACCAU [pwkr exNG1 F6.24] (Eterna round: R96, puzzle: Exclusion NG 1) | 0.224 µM | 0.221 µM | 0.227 µM | – | – | – |
| ACUCAGUGAGGAUAUCGCCAGAGAGCCGUGACGGCUCCUGAUGAGAAGGCACAUGAGGAUCACCCAUGUAAGCA [EX4 C.7] (Eterna round: R97, puzzle: Exclusion 4) | 0.204 µM | – | 0.134 µM | – | – | – |
| AUAAUAAAGGAGGAUAUCGAUUCGGAAACGAAUCGAGAAGGUCUAACAUGAGGAUCACCCAUGUUCCUCAAAUA [Mat - Exclusion 6 - Eli Mod - D51] (puzzle: Exclusion 6) | – | – | – | 0.058 µM | 0.0356 µM | 0.0279 µM |
| ACAUGAGGAUCACCCAUGUGCACGUAAUGGCUCAUGUAGAGAGAGGAUAUGCGUGACGAACGAGCGCAGAAGGCUCAAGACUGG [Deportation 15 - Jieux - Exclusion NG 3] (Eterna round: R96, puzzle: Exclusion NG 3) | 0.114 µM | 0.0662 µM | 0.0731 µM | – | – | – |
| UCGUAGUCAGGAUAUACAUGAGGAUCACCCAUGUAAAAUUUUAAUUUAAUUUUAAGGUGUAGAAGGGACCAGUU [Ex3 #22] (Eterna round: R97, puzzle: Exclusion 3) | 0.0434 µM | – | 0.0518 µM | – | – | – |
| GUUUUCAGACGGAGAUCCUACAUGAGGAUCACCCAUGUCUCACAAGCUUUUUGCUCGUCUUAUACUCCUCUGUUCUC [Elimod 42 - Jieux - Sensor, turn-off variant 1] (Eterna round: R97, puzzle: Sensor, turn-off variant 1) | 0.0835 µM | – | 0.106 µM | – | – | – |
| GUCUAGAGAGGAUAUAUUUACACUGUACGUCGGAUGAUUGCACUUGAGGAUCACCCAAGUAGAAGGCUCGAGGG [EX2 #33] (Eterna round: R97, puzzle: Exclusion 2) | 0.13 µM | – | 0.112 µM | – | – | – |
| GUGGUACAUGAGGAUCACCCAUGUCAGGAUAUCGCGUGGUUUUUUGCGGCCGCGCGCGCGAGAAGGGACGUCUU (puzzle: Exclusion 1) | – | – | – | – | 0.0291 µM | – |
| ACAGGUUUCAUAGGAUAUCUCUGACUAUGGCACUCCUUGUGUCCACAUGAGGAUCACCCAUGUCGAGAGAAGGGUGCACCUGCG [Arenena] (Eterna round: R96, puzzle: Exclusion NG 2) | 0.147 µM | 0.0649 µM | 0.0657 µM | – | – | – |
| CCGGCGUGGUGCGGUAGUUGUACGACAUGAGGAUCACCCAUGUAGGAUAUGCGCGUGGUCGCGCCGCAGAAGGACAACGUUUGG [Random, 20% A] (Eterna round: R96, puzzle: Exclusion NG 3) | 0.0196 µM | 0.0146 µM | 0.0239 µM | – | – | – |
| GACACGGAUGUCAGGAUAUGCAAAUGGCAUCGUUCGCAGAAGGGACAUGAGGAUCACCCAUGUAAAAGUGGACC [Onsorelama] (Eterna round: R97, puzzle: Brourd's mod of Exclusion 4) | 0.109 µM | – | 0.114 µM | – | – | – |
| AGUCGGCGAGGAUAUACAUGAGGAUCACCCAUGUGAGAGAUAAAAGUGAGUUAGACAAGUAGAAGGCGCUGACA [JL Lego Mod 9] (Eterna round: R96, puzzle: Exclusion 3) | – | 0.0464 µM | – | – | – | – |
| AAAAGAAAGGGAGGAUAUCUGACGGGAUACCAAAGAGAAGGCCCAGGCACAUGAGGAUCACCCAUGUUCGUGCGCCUACUUAAC [Enveri] (Eterna round: R96, puzzle: Exclusion NG 1) | 0.0283 µM | 0.00973 µM | 0.0144 µM | – | – | – |
| AGGUGACUGGUGAGGAUAUCGUGUUCGAAAGAACGUGAGAAGGCACAUGAGGAUCACCCAUGUGAUCCUCAUCG [Omei Ex4B A30] (Eterna round: R97, puzzle: Brourd's mod of Exclusion 4) | 0.101 µM | – | 0.027 µM | – | – | – |
| ACAAGCUUUUAGAUUUUCAACAUGAGGAUCACCCAUGUUCGUCUUGGGCUAGUGCGAGUGCGGUGUACUCGUAUUAG [JL TOV1 3.83 sellena mod] (Eterna round: R97, puzzle: Sensor, turn-off variant 1) | 0.0232 µM | – | 0.0234 µM | – | – | – |
| ACUAAUAGAGGAUAUACAGUUUAUUACAUGAGGAUCACCCAUGUUCUUCAAUGUAUAUAAGUAGAAGGCUAUGGAA [EX-5 Malc#4] (puzzle: Exclusion 5) | – | – | – | – | 0.0569 µM | – |
| AACCAGCGAGGAUAUGCUUGCGCGUGUUCUAGUUGAAAUCGACUUGAGGAUCACCCAAGUAGAAGGCGCAGCCG [EX2 #48] (Eterna round: R97, puzzle: Exclusion 2) | 0.0839 µM | – | 0.0439 µM | – | – | – |

| Sequence | apparent KD of MS2 coat protein (input ligand: FMN 200 uM) | apparent KD of MS2 coat protein [1] | apparent KD of MS2 coat protein (input ligand: none) | apparent KD of MS2 coat protein [2] | apparent KD of MS2 coat protein [3] | apparent KD of MS2 coat protein [4] |
| --- | --- | --- | --- | --- | --- | --- |
| UGAUCUAGCGGAGGAUAUACAUGAGGAUCACCCAUGUAUAGUCUAUGACCGUAGUCGUGGACCGUGUAGAAGGCCGCUAGAUCU [JL ENG2 3.77] (Eterna round: R96, puzzle: Exclusion NG 2) | 0.0165 µM | 0.0114 µM | 0.011 µM | – | – | – |
| AAUACUAACACGAAAGUGUUAGUACAAUAAGCUUGUGAAACAUGAGGAUCACCCAUGUCCUCAUAAGCUCGUCUUAA [salish99_TOv2_r3_011] (puzzle: Sensor v3, turn-off variant 2) | – | – | – | 0.0123 µM | 0.309 µM | 0.0131 µM |
| UUCCUACAUGAGGAUCACCCAUGUCAGGAUAUAUAAAACGCUCUGGUAAUAGAGCAAGAUAGAAGGGAUUGGGA [Beeratve] (Eterna round: R97, puzzle: Exclusion 1) | 0.0146 µM | – | 0.0133 µM | – | – | – |
| CUGGUCCGAGGAUAUAUUAAGUGAAACAUGAGGAUCACCCAUGUUAUUUGAUGGAUGAAAAUAGAAGGCGGACUAG [Mat - Exclusion 5 - JL mod - D58] (puzzle: Exclusion 5) | – | – | – | 0.0229 µM | 0.0411 µM | 0.0452 µM |
| AACCUAUGAGGAUAUACAUGAGGAUCACCCAUGUGUGAGCGUAUCUCAUCACCAAAUUGUAGAAGGCAUGGCGG [Eternabot (L1) Solution 38] (Eterna round: R97, puzzle: Exclusion 3) | 0.0683 µM | – | 0.0414 µM | – | – | – |
| AGCUGUGGCCGAGGAUAUCAAGACCGAUGGAAAACCAUCGGAACUCAACAUGAGGAUCACCCAUGUGAGAAGGCGGUCUCAGCA [Eli eng2 - 027] (Eterna round: R96, puzzle: Exclusion NG 2) | 0.0109 µM | 0.00782 µM | 0.0109 µM | – | – | – |
| CAGUACUGAGGAUAUACAUGAGGAUCACCCAUGUGUGUGAAAUUUAUGUGGUUGUUUUGUAGAAGGCAGUACUG [JR_Ex3_Sub029] (Eterna round: R97, puzzle: Exclusion 3) | 0.0921 µM | – | 0.855 µM | – | – | – |
| UAGAUGGGAGGAUAUGCGUAGAUACGGAUUCGUGUGGUGCUACAUGAGGAUCACCCAUGUAGAAGGCCCGUCUU [JL-ex2-2.27 Mayanne mod] (puzzle: Exclusion 2) | – | – | – | – | 0.012 µM | – |
| CUGAGGUAGCGGUCCUAUGACAUGAGGAUCACCCAUGUACCUCGCUACGAGCUUUUUGCUCGUCUUAUAAUUCUCGG [JL Atriat mod 2] (puzzle: Sensor v3, turn-off variant 1) | – | – | – | 0.573 µM | 0.141 µM | 0.643 µM |
| GAGUAGAGAGGAUAUGCAAUGAUCAUCGUACGAUGAGGCUGACAUGAGGAUCACCCAUGUAGAAGGCUCUGAUC [EX2 #19] (Eterna round: R97, puzzle: Exclusion 2) | 0.0221 µM | – | 0.0307 µM | – | – | – |
| UUUUUUUGGCAAGGAUAUCCUGUGCGGUUCCGGCUCGUGUCUGUUACAUGAGGAUCACCCAUGUGGGAGAAGGUGCCUGUGGUU [Design 87] (Eterna round: R96, puzzle: Exclusion NG 2) | 0.0828 µM | 0.0368 µM | 0.0328 µM | – | – | – |
| UAAAUGUGAGGAUAUUCGAAGAACACGGAGACGUGUUUUUCGGAGAAGGCACAUGAGGAUCACCCAUGUUCCUU [Mat - Exclusion 4 - JL Mod - D6] (Eterna round: R97, puzzle: Exclusion 4) | 0.241 µM | – | 0.0298 µM | – | – | – |
| AAACUGCAUGUGAGGAUAUGCACCAGCUAAGCCGGGCAGAAGGCACAUGAGGAUCACCCAUGUCAUCCUAUUGC [Latibibe] (puzzle: Brourd's mod of Exclusion 4) | – | – | – | 0.0265 µM | 0.0116 µM | 0.0144 µM |
| AGUAAGCUAGGAUAUGCUUUGGGAAAGCAUUCCUUCGAUAAACUUGAGGAUCACCCAAGUAGAAGGAGCUUACU [jl-ex2.4.51 ViennaUCT mod] (Eterna round: R97, puzzle: Exclusion 2) | 0.0229 µM | – | 0.012 µM | – | – | – |
| GUAAAACAUGAGGAUCACCCAUGUCAGGAUAUACGAAUCCACCCUAACUGCGUGGAUCGUAGAAGGGACAUAGG [Exclusion 1 (MOD5.1 Esqu)] (Eterna round: R97, puzzle: Exclusion 1) | 0.0179 µM | – | 0.0447 µM | – | – | – |
| UUUAGUUCAGGAUAUGUAGAUUUUAACAUGAGGAUCACCCAUGUAGAUCCUGAAUUAACUACAGAAGGGAACAUUU [Exclusion 5: 2:a] (puzzle: Exclusion 5) | – | – | – | – | 0.0249 µM | – |
| UAGAUGUGAGGAUAUGGUAAAGAUAGAAUGAUGAAAGAACUCCAGAAGGCACAUGAGGAUCACCCAUGUAGAUG [Mat - Exclusion 4 - Mod of JL - D29] (puzzle: Exclusion 4) | – | – | – | – | 0.0223 µM | – |

Reference: the supplement of paper PMC9170038
